Test results published in patent US20230365705A1 (DYNAMICURE BIOTECHNOLOGY, published 2023).
One block for each binder: values may come before it.

What was measured:
[1] = target: T1, Human CD93 recombinant protein (Sino Biological Inc, Catalog #12589-H08H) (human, UniProt Q9NPY3 22-580); test: BLI (Octet QKe), biotinylated human CD93 on streptavidin biosensors
T1 construct: Biotinylated (EZ-LINK NHS-PEG4 biotin) in the BLI assays; also called hCD93; His-tagged human CD93
T1 sequence (looked up): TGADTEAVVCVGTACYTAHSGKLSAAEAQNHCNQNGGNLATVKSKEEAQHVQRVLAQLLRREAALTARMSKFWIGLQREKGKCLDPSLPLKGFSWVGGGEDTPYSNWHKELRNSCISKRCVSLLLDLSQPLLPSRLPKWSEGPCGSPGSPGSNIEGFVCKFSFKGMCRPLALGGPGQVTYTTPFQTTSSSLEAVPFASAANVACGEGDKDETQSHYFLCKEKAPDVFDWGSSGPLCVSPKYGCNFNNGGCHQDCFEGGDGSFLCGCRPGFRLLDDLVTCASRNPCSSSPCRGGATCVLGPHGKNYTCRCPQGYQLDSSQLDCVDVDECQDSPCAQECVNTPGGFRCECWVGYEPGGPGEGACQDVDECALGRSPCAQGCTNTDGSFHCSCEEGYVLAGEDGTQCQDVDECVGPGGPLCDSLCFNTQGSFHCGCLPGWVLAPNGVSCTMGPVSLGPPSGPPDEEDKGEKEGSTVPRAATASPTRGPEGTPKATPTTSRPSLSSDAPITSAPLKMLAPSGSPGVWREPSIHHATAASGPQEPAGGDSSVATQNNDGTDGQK
Protocol: (§1) The binding affinity of anti-CD93 antibodies was determined with bio-layer interferometry using Octet QKe (Fortebio). […] Human CD93 recombinant protein (Sino Biological Inc, Catalog #12589-H08H) was biotinylated using EZ-LINK NHS-PEG4 biotin (Thermo Fisher Scientific). Streptavidin biosensors (Fortebio) were used to load biotinylated CD93 protein (300 seconds in 5 μg/ml). Baseline was stabilized for 60 seconds in 1× kinetics buffer (Fortebio) before anti-CD93 antibodies, at a serial dilution, were allowed to associate for 300 seconds with captured protein. Then the sensors were dissociated in 1× kinetics buffer for 600 seconds. […] (FIG. 42).

[2] = target: T2, Human CD93 on cells (human CD93 expressing CHO cells; HUVEC, U937 and KG1a cells) (human, UniProt Q9NPY3 22-652); test: flow cytometry blocking assay, CHO-hCD93 cells; blocked ligand hMMRN2 495-674 at 0.1 ug/ml; blocking activity is 0 up to about 10 ug/ml and appears only at the two highest points
T2 construct: whole, on cells; also called hCD93 expressing CHO cells; hCD93 CHO cells
T2 sequence (looked up): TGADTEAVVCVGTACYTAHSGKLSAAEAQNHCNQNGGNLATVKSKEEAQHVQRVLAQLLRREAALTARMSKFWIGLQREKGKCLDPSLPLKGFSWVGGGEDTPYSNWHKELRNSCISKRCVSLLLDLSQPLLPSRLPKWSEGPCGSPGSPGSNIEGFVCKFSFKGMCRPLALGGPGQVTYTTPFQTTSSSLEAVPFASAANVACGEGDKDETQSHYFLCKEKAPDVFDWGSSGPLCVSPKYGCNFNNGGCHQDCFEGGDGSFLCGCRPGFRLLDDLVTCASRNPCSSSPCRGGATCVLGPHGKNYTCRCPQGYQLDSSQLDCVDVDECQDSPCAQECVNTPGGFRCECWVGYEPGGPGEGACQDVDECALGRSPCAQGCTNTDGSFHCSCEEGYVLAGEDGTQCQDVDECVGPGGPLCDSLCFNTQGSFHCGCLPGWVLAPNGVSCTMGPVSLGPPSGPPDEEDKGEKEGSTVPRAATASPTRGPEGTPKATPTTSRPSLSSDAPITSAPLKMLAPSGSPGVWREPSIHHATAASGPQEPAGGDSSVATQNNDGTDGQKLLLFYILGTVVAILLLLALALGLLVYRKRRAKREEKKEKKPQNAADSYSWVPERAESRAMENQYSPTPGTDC
Protocol: Then the cells were incubated with hMMRN2₄₉₅₋₆₇₄ at 0.1 μg/ml. […] Then the cells were washed with FACS buffer and incubated with APC-conjugated anti-His tag antibody at 1 μg/ml for 30 minutes at 4° C. After washing with FACS buffer twice, the samples were analyzed and data acquired in NovoCyte Flow. Recombinant his tagged […] was produced internally in Expi_HEK following routine procedure.

[3] = target: T1, Human CD93 recombinant protein (Sino …); test: BLI (Octet QKe), biotinylated human CD93 on streptavidin biosensors; antibody stored 4 weeks at 40 C
Protocol: as §1

[4] = target: T2, Human CD93 on cells (human CD93 …); test: flow cytometry titration, HUVEC cells
Protocol: (§2) HUVEC cells were detached by incubation with TrypLE reagents (Thermo Fisher), which preserves the integrity of CD93 on the cell surface. Then the cells were incubated with serial diluted anti-CD93 antibodies for 30 minutes at 4° C. After washing by FACS buffer, the cells were incubated with Alexa Fluor 647 conjugated anti-human IgG (Jackson ImmunoResearch) for 30 minutes in 4° C. After washing by FACS buffer twice, the samples were acquired in NovoCyte Flow Cytometer and analyzed by NovoExpress software.

[5] = target: T2, Human CD93 on cells (human CD93 …); test: flow cytometry titration, CHO-hCD93 cells; antibody stored 4 weeks at 40 C
Protocol: as §2, with “Human CD93 expressing CHO cells” for “HUVEC cells”, “minutes in” for “minutes at”, “minutes at” for “minutes in”

[6] = target: T2, Human CD93 on cells (human CD93 …); test: flow cytometry blocking assay, CHO-hCD93 cells, antibody 50 ug/ml then MMRN2 0.5 ug/ml, APC-A
Protocol: After incubation, the cells were washed with FACS buffer and incubated with anti-His conjugated APC or streptavidin conjugated APC at a ratio of 1:500 for 30 minutes at 4° C. After washing with FACS buffer twice, the samples were analyzed and data acquired in NovoCyte Flow.

Kd [1]: 0.416 nM | koff [1]: 0.000104 s⁻¹ | kon [1]: 249000 M⁻¹ s⁻¹ | IC50 [2]: 225 nM | Kd [3]: 0.112 nM | koff [3]: 3.24e-05 s⁻¹ | kon [3]: 289000 M⁻¹ s⁻¹
B1: h16E4 (humanized 16E4, VH4+VL6) (antibody, V domains shown)
VH: QVQLVQSGAEVKKPGASVKVSCKASGYTFTSYWMHWVRQAPGQGLEWMGEIDPSASYTYYNQKFKGRVTMTRDKSSSTVYMELSSLTSEDSAVYYCARSVYYGNKYFDVWGAGTTVTVSS
VL: DIQMTQSPSTLSASVGDRVTITCKASQSVDYAGDSYMNWYQQKPGKAPKLLIYAASNLESGVPSRFSGSGSGTEFTLTISSLQPDDFATYYCQQTNEDPRTFGGGTKLEIK
notes: Detected with anti-human IgG, so a human Fc

EC50 [4]: 1.34 nM | EC50 [5]: 0.195 nM
B2: h7F3 (humanized 7F3, VH3+VL3) (antibody, human IgG1, V domains shown)
VH: QVQLVQSGAEVKKPGASVKVSCKASGYTFTDYEMHWVRQAPGQGLEWMGGIDPETGDTAYNQNFKGRVTMTTDTSTSTAYMELRSLTSDDTAVYYCTNYGNLYYYAMDYWGQGTSVTVSS
VL: EIVLTQSPSSLSASVGDRVTITCRASSSVSSSYLHWYQQKPGKAPKLLIYSTSNLAFGVPSRFSGSGSGTSYTFTISSLQPEDIATYYCQQYSGYPLTFGSGTKLEIK
notes: also called humanized 7F3-hIgG1

M3 gate, % of cells positive for MMRN2 after the antibody [6]: 65.9%
B3: 16E4 (hybridoma) (antibody, IgG2a, V domains shown)
VH: QVQLQQPGAELVKPGASVKLSCKASGYTFTSYWMHWVKQRPGQGLEWIGEIDPSASYTYYNQKFKGKATLTVDKSSSTAYMQLSSLTSEDSAVYYCARSVYYGNKYFDVWGAGTTVTVSS
VL: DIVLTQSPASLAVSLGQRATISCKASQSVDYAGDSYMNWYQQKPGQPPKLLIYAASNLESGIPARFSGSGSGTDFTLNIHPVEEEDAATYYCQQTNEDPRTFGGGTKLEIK
notes: also called 16E4 mAb; 16E4 mIgG2a
